Sequences and labels used below:
T1: GST-hMYH(1-350) (human, UniProt Q9UIF7-3 1-350)
T1 construct: also called MYHΔC3; ΔC3; source: purified, immobilised on beads
T1 sequence (looked up): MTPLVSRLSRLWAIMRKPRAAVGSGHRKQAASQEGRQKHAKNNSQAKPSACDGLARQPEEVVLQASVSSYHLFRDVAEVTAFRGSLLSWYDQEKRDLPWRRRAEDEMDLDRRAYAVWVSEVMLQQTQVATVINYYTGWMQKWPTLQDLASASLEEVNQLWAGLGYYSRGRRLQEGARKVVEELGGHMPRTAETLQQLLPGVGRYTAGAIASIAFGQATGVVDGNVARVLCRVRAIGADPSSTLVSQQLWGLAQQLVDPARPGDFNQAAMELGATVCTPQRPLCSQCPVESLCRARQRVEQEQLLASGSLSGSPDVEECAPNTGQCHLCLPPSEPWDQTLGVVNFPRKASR

T2: mouse Myh (mMyh), recombinant (mouse, UniProt Q99P21 1-515)
T2 sequence (looked up): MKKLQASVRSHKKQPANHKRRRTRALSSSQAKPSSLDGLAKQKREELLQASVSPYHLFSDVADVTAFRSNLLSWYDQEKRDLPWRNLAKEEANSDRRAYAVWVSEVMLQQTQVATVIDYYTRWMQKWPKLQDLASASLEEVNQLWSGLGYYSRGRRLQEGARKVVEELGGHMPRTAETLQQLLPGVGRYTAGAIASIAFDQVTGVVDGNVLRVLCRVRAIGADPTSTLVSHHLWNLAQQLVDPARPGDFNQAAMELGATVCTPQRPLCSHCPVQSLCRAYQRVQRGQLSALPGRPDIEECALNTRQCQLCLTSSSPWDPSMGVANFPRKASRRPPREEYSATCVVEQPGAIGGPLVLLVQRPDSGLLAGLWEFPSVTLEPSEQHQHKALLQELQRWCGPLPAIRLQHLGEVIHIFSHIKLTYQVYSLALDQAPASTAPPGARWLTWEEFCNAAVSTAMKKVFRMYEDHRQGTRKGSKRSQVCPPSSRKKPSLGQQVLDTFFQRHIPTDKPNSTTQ

T3: GST-hRad9 (human, UniProt Q99638 1-391)
T3 construct: human Rad9, subunit of the Rad9-Rad1-Hus1 checkpoint clamp; also called GST-Rad9; GST-tagged hRad9; source: immobilised on beads
T3 sequence (looked up): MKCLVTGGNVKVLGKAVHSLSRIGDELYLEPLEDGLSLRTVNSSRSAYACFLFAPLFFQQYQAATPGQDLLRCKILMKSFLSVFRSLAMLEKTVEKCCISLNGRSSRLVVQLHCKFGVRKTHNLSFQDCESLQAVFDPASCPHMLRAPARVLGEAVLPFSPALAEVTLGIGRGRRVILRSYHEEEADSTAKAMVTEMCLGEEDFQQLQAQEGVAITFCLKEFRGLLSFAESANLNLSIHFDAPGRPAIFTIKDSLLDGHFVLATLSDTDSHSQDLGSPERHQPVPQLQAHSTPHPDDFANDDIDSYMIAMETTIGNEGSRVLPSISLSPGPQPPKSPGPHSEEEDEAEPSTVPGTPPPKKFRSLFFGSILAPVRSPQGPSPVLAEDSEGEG

T4: GST-hMYH(1-350) Q324H (human, UniProt Q9UIF7-3 1-350, Q324H)
T4 construct: human MutY homolog (MYH, MUTYH), residues 1-350 with Q324H, a variant found in MAP patients; also called hMYH^Q324H; Q338H according to the new nomenclature; source: purified, immobilised on beads
T4 sequence (looked up): T1 sequence (looked up) with Q324H

B1: His-tagged human Hus1 (hHus1) (natural protein, UniProt O60921 1-280, looked up)
chain: MKFRAKIVDGACLNHFTRISNMIAKLAKTCTLRISPDKLNFILCDKLANGGVSMWCELEQENFFNEFQMEGVSAENNEIYLELTSENLSRALKTAQNARALKIKLTNKHFPCLTVSVELLSMSSSSRIVTHDIPIKVIPRKLWKDLQEPVVPDPDVSIYLPVLKTMKSVVEKMKNISNHLVIEANLDGELNLKIETELVCVTTHFKDLGNPPLASESTHEDRNVEHMAEVHIDIRKLLQFLAGQQVNPTKALCNIVNNKMVHFDLLHEDVSLQYFIPALS
notes: human Hus1, subunit of the Rad9-Rad1-Hus1 checkpoint clamp; pET21a usually adds a C-terminal His6 (surmise); source: E. coli BL21-Star with pET21a-hHus1, purified
B2: GST-hRad1 (natural protein, human, UniProt O60671 1-282, looked up)
chain: MPLLTQQIQDEDDQYSLVASLDNVRNLSTILKAIHFREHATCFATKNGIKVTVENAKCVQANAFIQAGIFQEFKVQEESVTFRINLTVLLDCLSIFGSSPMPGTLTALRMCYQGYGYPLMLFLEEGGVVTVCKINTQEPEETLDFDFCSTNVINKIILQSEGLREAFSELDMTSEVLQITMSPDKPYFRLSTFGNAGSSHLDYPKDSDLMEAFHCNQTQVNRYKISLLKPSTKALVLSCKVSIRTDNRGFLSLQYMIRNEDGQICFVEYYCCPDEEVPESES
notes: human Rad1, subunit of the Rad9-Rad1-Hus1 checkpoint clamp; also called GST-Rad1; GST-tagged hRad1; source: immobilised on beads
B3: FLAG-tagged mouse Sirt6 (FLAG-mSirt6), wild type (natural protein, UniProt P59941 1-334, looked up)
chain: MSVNYAAGLSPYADKGKCGLPEIFDPPEELERKVWELARLMWQSSSVVFHTGAGISTASGIPDFRGPHGVWTMEERGLAPKFDTTFENARPSKTHMALVQLERMGFLSFLVSQNVDGLHVRSGFPRDKLAELHGNMFVEECPKCKTQYVRDTVVGTMGLKATGRLCTVAKTRGLRACRGELRDTILDWEDSLPDRDLMLADEASRTADLSVTLGTSLQIRPSGNLPLATKRRGGRLVIVNLQPTKHDRQADLRIHGYVDEVMCRLMKHLGLEIPAWDGPCVLDKALPPLPRPVALKAEPPVHLNGAVHVSYKSKPNSPILHRPPKRVKTEAAPS
notes: mouse Sirt6, full length cDNA in pcDNA3.1; about 90% pure
B4: GST-hMYH(65-350) (domain or fragment, human, UniProt Q9UIF7-3 65-350, looked up)
chain: ASVSSYHLFRDVAEVTAFRGSLLSWYDQEKRDLPWRRRAEDEMDLDRRAYAVWVSEVMLQQTQVATVINYYTGWMQKWPTLQDLASASLEEVNQLWAGLGYYSRGRRLQEGARKVVEELGGHMPRTAETLQQLLPGVGRYTAGAIASIAFGQATGVVDGNVARVLCRVRAIGADPSSTLVSQQLWGLAQQLVDPARPGDFNQAAMELGATVCTPQRPLCSQCPVESLCRARQRVEQEQLLASGSLSGSPDVEECAPNTGQCHLCLPPSEPWDQTLGVVNFPRKASR
notes: also called MYHΔC5; ΔC5; source: purified, immobilised on beads

In one assay the target is T1, GST-hMYH(1-350). The assay can be described thus: pull-down; GST fusion protein immobilised on beads; 50 ug/ml ethidium bromide added for 30 min before the partner; bound protein detected by Western blot (FLAG, hAPE1 or His antibody); in some panels a further purified partner (hAPE1, mSirt6, hHus1) was added. Conditions: both partners purified.
Assay [1] has as its target B3. Described as above. Conditions: both partners purified.
Assay [2] deals with T2, mouse Myh (mMyh), recombinant. The assay can be described thus: cell-based or functional assay.
The target of assay [3] is human APE1 (hAPE1), recombinant (human, UniProt P27695 1-318). The experiment in a line: cell-based or functional assay.
The target in the next assay is T3, GST-hRad9. The experiment in a line: pull-down; GST fusion protein immobilised on beads; 50 ug/ml ethidium bromide added for 30 min before the partner; bound protein detected by Western blot (FLAG, hAPE1 or His antibody); in some panels a further purified partner (hAPE1, mSirt6, hHus1) was added. The conditions noted are these: both partners purified. Background: Immunoblotting shows a protein as a band on a membrane.

A further assay deals with T4, GST-hMYH(1-350) Q324H. The description is as above. Conditions: both partners purified.

Changes are numbered by the printed parent chain.

Chain of human APE1 (hAPE1), recombinant (P27695 whole entry, the tested form may be a part): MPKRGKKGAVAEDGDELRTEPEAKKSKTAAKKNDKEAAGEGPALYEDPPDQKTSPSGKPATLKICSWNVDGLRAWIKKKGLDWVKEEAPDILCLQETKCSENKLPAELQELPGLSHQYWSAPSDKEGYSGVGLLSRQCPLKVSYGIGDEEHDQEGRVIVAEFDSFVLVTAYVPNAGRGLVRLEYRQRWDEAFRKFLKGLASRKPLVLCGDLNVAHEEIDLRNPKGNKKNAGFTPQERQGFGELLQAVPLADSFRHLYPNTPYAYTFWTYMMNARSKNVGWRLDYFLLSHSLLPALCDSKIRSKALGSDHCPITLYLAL

With B1, in the assay with GST-hMYH(1-350), the binding result was “binds”.
Regarding B2, the binding result in assay [1] is “binds”.
For B3, the “mMyh glycosylase activity on FAM-labeled A/G^o-DNA (0.5 nM mMyh, 1-32 nM mSirt6); fold stimulation at a Sirt6/Myh ratio of 32” value in assay [2] worked out at 3 fold. The “3'-phosphodiesterase activity of hAPE1 on 3'-FAM-labeled U/G-DNA (0.01 nM hAPE1, 1-16 nM mSirt6); fold stimulation at a Sirt6/APE1 ratio of 400” value in assay [3] stood at 2 fold. Further, the “AP endonuclease activity of hAPE1 on FAM-labeled THF/G-DNA (0.002 nM hAPE1, 1-8 nM mSirt6); fold stimulation at a Sirt6/APE1 ratio of 3,000” value in assay [3] is 2 fold. Also, the “fold stimulation of binding with a tenfold excess of hAPE1, against no hAPE1” value in the assay with GST-hMYH(1-350) was 3 fold. Further, the binding result in the assay with GST-hRad9 and with GST-hMYH(1-350) Q324H was “binds” each time.
Regarding B4, the binding result in assay [1] is “binds”.
